Measured values from patent US20180009897A1 (IGM BIOSCIENCES, published 2018).

Legend:
Experiment in all cases: specificity ELISA as in Example 2, receptor coated
[1] = molecular target: T1, Soluble DcR1 protein (R&D Systems Catalog #630-TR-100/CF) (UniProt O14798 26-221, limits assumed)
T1 construct: also called decoy receptor DcR1; TRAILR3
T1 sequence (looked up): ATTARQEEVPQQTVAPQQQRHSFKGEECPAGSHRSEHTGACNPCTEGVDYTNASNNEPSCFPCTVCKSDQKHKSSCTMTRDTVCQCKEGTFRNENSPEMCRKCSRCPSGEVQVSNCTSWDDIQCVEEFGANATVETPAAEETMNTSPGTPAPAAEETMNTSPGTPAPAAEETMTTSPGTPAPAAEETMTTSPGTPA
Procedure: (§1) Soluble DR5, DR4, DcR1, or DcR2 protein (R&D Systems Catalog #631-T2-100/CF, 347-DR-100/CF, 630-TR-100/CF, 633-TR-100 respectively) were coated on an ELISA plate at 2 μg/mL in 100 mM NaHCO₃ pH 9.5 overnight at 4° C. A solution of 2% BSA in PBS was used for the blocking and antibody incubation steps. The plate was blocked for 1 hour at room temperature, then incubated with mouse anti-human DR5 mAb (Acris Antibodies Catalog #AM31206AF-N) for 1 hour at room temperature. anti-DR5 mAb was 3-fold serially diluted to concentrations ranging from 1 to 200 μg/mL. After washing 3 times with PBS plus 0.05% Tween-20, the plate was incubated with rat anti-mouse kappa-HRP (Southern Biotech Catalog #1180-05) for 1 hour at room temperature, protected from light. After washing 3 times with PBS plus 0.05% Tween-20, the plate was incubated with TMB substrate (BD Biosciences Catalog #555214) for 20 minutes at room temperature. The reaction was stopped with 1M H₂SO₄ and absorbance at 450 nm was determined using a microtiter plate reader.
(§2) For Human Anti-DR5 mAb ELISAs, 1:2000 Mouse Anti-Human Lambda-HRP (Southern Biotech Catalog #9180-05) or 1:6000 Mouse Anti-Human Kappa-HRP (Southern Biotech Catalog #9230-05) was used for detection.
(§3) An IgG version and pentameric IgM-J chain version of anti-DR5 mAb #2 were tested for binding specificity by ELISA as described in Example 2. As shown in FIG. 8A (IgG) and FIG. 8B (IgM), the antibodies bound to human DR5 but not human DR4 or either of the decoy receptors DcR1 or DcR2.

[2] = molecular target: T2, Soluble DR4 protein (R&D Systems Catalog #347-DR-100/CF) (human, UniProt O00220 24-239, limits assumed)
T2 construct: also called human DR4; TRAILR1
T2 sequence (looked up): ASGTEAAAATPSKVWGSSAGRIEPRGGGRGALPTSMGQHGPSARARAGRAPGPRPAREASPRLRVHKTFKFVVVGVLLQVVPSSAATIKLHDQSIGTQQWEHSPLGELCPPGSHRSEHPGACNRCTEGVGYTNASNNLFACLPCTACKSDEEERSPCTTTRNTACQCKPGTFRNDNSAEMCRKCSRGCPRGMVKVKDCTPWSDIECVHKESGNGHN
Procedure: as §1, §2, §3

[3] = molecular target: T3, Soluble DcR2 protein (R&D Systems Catalog #633-TR-100) (UniProt Q9UBN6 56-211, limits assumed)
T3 construct: also called decoy receptor DcR2; TRAILR4
T3 sequence (looked up): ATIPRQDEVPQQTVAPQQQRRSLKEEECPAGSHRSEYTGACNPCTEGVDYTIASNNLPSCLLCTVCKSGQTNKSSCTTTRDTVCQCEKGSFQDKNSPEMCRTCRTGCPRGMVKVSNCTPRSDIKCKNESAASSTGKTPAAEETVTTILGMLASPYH
Procedure: as §1, §2, §3

binding result [1]: no binding
binding result [2]: no binding
binding result [3]: no binding
B1: Anti-DR5 mAb #2, pentameric IgM-J chain version (antibody, V domains shown)
VH: QVQLQESGPGLVKPSQTLSLTCTVSGGSISSGDYFWSWIRQLPGKGLECIGHIHNSGTTYYNPSLKSRVTISVDTSKKQFSLRLSSVTAADTAVYYCARDRGGDYYYGMDVWGQGTTVTVSS
VL: EIVLTQSPGTLSLSPGERATLSCRASQGISRSYLAWYQQKPGQAPSLLIYGASSRATGIPDRFSGSGSGTDFTLTISRLEPEDFAVYYCQQFGSSPWTFGQGTKVEIK
modifications: Assembled as a pentamer of bivalent IgM binding units with one J chain (10 VH/VL pairs); the letters do not carry this.
notes: VH and VL were inserted into proprietary IgM vectors; also called DR5 MAb IgM #2; IgM Anti-DR5 mAb #2; not shown: IgM heavy-chain constant region, kappa light-chain constant region and J chain of the construct
